Where a chain is given by its changes, count along the chain named.

In the test the target is T1, Rat RGMa-His (rat) (UniProt D4A188).
T1 sequence: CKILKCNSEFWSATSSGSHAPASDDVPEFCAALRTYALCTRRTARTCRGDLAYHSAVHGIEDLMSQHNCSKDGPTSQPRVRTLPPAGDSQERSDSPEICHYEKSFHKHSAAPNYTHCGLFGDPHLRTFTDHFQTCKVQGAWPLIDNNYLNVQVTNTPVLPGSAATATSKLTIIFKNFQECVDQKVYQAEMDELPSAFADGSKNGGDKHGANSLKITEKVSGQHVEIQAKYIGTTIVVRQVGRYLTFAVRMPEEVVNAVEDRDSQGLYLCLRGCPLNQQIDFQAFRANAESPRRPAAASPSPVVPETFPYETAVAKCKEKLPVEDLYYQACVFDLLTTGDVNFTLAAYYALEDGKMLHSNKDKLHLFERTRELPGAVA
Briefly: BIAcore. (In general: In SPR one partner is held on a chip, and binding of the other changes the refractive index at the surface.)

B1: AE12-1 (antibody, V domains shown)
VH: EVQLVQSGAEVKKPGASVKVSCKASGYTFTSHGISWVRQAPGQGLDWMGWISPYSGNTNYAQKLQGRVTMTTDTSTSTAYMELSSLRSEDTAVYYCARVGSGPYYYMDVWGQGTLVTVSS
VL: QSALTQPRSVSGSPGQSVTISCTGTSSSVGDSIYVSWYQQHPGKAPKLMLYDVTKRPSGVPDRFSGSKSGNTASLTISGLQAEDEADYYCCSYAGTDTLFGGGTKVTVL
Consider B1, for which the dissociation constant (Kd) (as a rule, the free concentration of one partner at which half of the binding sites on the other are occupied at equilibrium, for simple one-to-one binding) amounted to 19 nM; the koff (in general, the first-order rate constant of dissociation) worked out at 0.00048 s⁻¹; the kon – broadly, a measure of how fast the partners come together – turned out to be 26000 M⁻¹ s⁻¹.

B2: AE12-1-L (antibody, V domains shown)
VH: B1 VH
VL: B1 VL with C91L
Regarding B2, the equilibrium dissociation constant (Kd) was found to be 12 nM, the off-rate constant (koff) is 0.00039 s⁻¹ and the association rate constant (kon) was determined as 32000 M⁻¹ s⁻¹.

B3: AE12-1-I (antibody, V domains shown)
VH: B1 VH
VL: B1 VL with C91I
B3 gave a dissociation constant Kd of 12 nM, a koff of 0.00032 s⁻¹ and an association rate constant (kon) of 28000 M⁻¹ s⁻¹.

B4: AE12-1-K (antibody, V domains shown)
VH: B1 VH
VL: B1 VL with C91K
B4 had a Kd of 17 nM, a koff of 0.00028 s⁻¹ and a kon of 16000 M⁻¹ s⁻¹.

B5: AE12-1-F (antibody, V domains shown)
VH: B1 VH
VL: B1 VL with C91F
B5 came in with a Kd of 5.2 nM, a koff of 0.00014 s⁻¹ and an association rate constant (kon) of 26000 M⁻¹ s⁻¹.

B6: AE12-1-H (antibody, V domains shown)
VH: B1 VH
VL: B1 VL with C91H
B6 came in with a Kd of 8.6 nM, an off-rate (koff) of 0.00025 s⁻¹ and a kon of 29000 M⁻¹ s⁻¹.

B7: AE12-1-Y (antibody, V domains shown)
VH: B1 VH
VL: B1 VL with C91Y
Turning to B7, the Kd amounted to 5 nM, the dissociation rate constant (koff) worked out at 6.9e-05 s⁻¹ and the kon is 14000 M⁻¹ s⁻¹.

B8: AE12-1-V (antibody, V domains shown)
VH: B1 VH
VL: B1 VL with C91V
In the case of B8, the dissociation constant (Kd) was found to be 15 nM, the koff is 0.00032 s⁻¹ and the kon came to 220000 M⁻¹ s⁻¹.

Source of the values: patent publication US20160326240A1.
